{"source": "the DeepSol protein solubility set", "data": [{"assay": "soluble on expression in E. coli; label from the status in PepcDB or PDB records", "values": [{"sequence": "MQPKVTVAQAAELMGVSDRTIRKKIEEGEITAEPAQSAKGKGRPGYLIPVSSLPVDAQRKYWTTSEVAAASEIGEAEPDKPETTGIPYTLAELEHAVGKEKFQEMMAEAEYRLQIVEQAMNPPQGVERTIWINRLAKKYGKSTATIYRDIEKFQEWGILGLMRKSRLLTQGPQRTSIEPEVERFIRAKYLDRRKPKPAHIFRETVRFCATNGYKAPSRASVFRYISDMERYEPDLCCLAREGEEAYWKKFAEKATRKEPEFVNQVWMGDHHKLDMFISYKGKPVRPWLTVWFDVCSRVVVGWCLSVQANGRTIALALRHALLPKKIKRDDGTEDVLEIGGIPGMIYIDNGEDYKAQVRAGKKHEDWELSRETRGICASLDIKVQFATPYHPWAKAHVERFFGTFTDQFTRYQPGWCGPNNEDRPEGFDEKELHEKGLLLDLEELSERIDTWLYEYHTTEHRSLGMTPMQKHFSTPKIREGFADERALDICLMDVERAAVTPNGIERFGTRGRKRWYWHPELPAYAGQKVIIRYDPNRIGELLVFHPKTGKYLFTATNKELLDFNATKDDIQELQKRRASRRKAVKEMVRNAQQASLENIVAEREAAGSRMTSGKAGSTKGKVRAMIGTEQVVRQREEQANLAKTKRPTKTTSAFDDYILREGTEG", "soluble on expression in E. coli": "not soluble"}, {"sequence": "MGLTTMGLTTMGLTTKGLTTMGLTTKGLTTKGLTTMGLTTKGFTTKGLTTMGVTTKGLTTMGLTTKGLTTKGLTTKGFTTKGLTTMGLATMGLTTKGLTTMGLTTMGLTTKGLTTKGLTTKGLTTKGLTTKGLTTMGLTTKGFTTKGLTTMGLTTMGLATMGLTTKGLTTMGLTTKGFITKGLTTMGLATMGLTTMGLTTKGLTTKGLTTKGLTTMGLTTKGFITKGLTTMGLATMGLTTMGLTTKGLTTMGLTTMGLTTKGLTTKGLTTKGLTTKGLTTKGLTTMGLTTKGFTTKGLTTMGLATMGLATMGLTTMGLTTKGLTTKGLTTKGLTTKGLTTMGLTTKGFTTKGLTTMGLTTMGLTTKGLTTKGLTTKGLTTKGLTTMGLTTKGFTTKGLTTMGLATMGLTTKGLTTMGLTTKGFITKGLTTMGLATMGLTTMGLTTKGLTTKGLTTKGLTTMGLTTMGLTTMGLTTMGLTTMGLTTMGLTTMGLTTKGLTSQGVMDQAGVNRVEGEPINRLRTCEGKGNGRGDMQGVGNLGKALRGREDSLIVSSETRGFPRMGLWPGFPPIEYQGQVQSLE", "soluble on expression in E. coli": "not soluble"}, {"sequence": "MRGRWPYEEKPLIVFWESTKACLLACKHCRAEALTEPQPGELSTREALALVDQVVEFGRPYPILVITGGDPLMRRDFWRILEYAVSQGLRVAVAPSVTPLLTREVVRRMARMGVARISISIDSGLPEVHDAIRGVPGTFKASVNIVREALAAGLPVQINTTVMKPTVDSLPETLKLLLDLGVDVWEVFYVVPTGRAARILDLTPSEWEDVSNYLYDASRYGVLVRTVEGPMFRRIALTRRLLENMGLDWRNR", "soluble on expression in E. coli": "not soluble"}, {"sequence": "MAQEIERKFLVSGDFKSFAFAQSRIMQGYICSARGRTVRVRIRDDKGYLTIKGASNESGTSRYEWEKELPLSEAEELMKLCEPGMIDKTRYLVRSGNHIFEVDEFYGENEGLIVAEVELGTEDEAFVKPGFIGEEVTGDVRYYNSHLMKKPYKMW", "soluble on expression in E. coli": "not soluble"}, {"sequence": "MGSDKIHHHHHHVVVFCGMGTLGPSFPEVPWLRLGVMSTDPKPGAEHPHEVENLDNHECWRLLRSVSVGRLAVWVEDHPDIFPINYKVDHGTLVFRTADGTKLQAATGDTPVAVEADGVDADSGVAWSVVIKGQAAPVKNQQEVLDTVGLLLFPWQAGKKEHFVRITPDTVTGRRFKVTPPLTWWTPLDDATRSGFE", "soluble on expression in E. coli": "not soluble"}, {"sequence": "DDAENIEYKVSISGTSVELTCPLDSDENLKWEKNGQELPQKHDKHLVLQDFSEVEDSGYYVCYTPASNKNTYLYLKARVGSADDAKKDAAKKDDAKKDDAKKDGSQTNKAKRALEVLEAEDKVILKCNSSITLLQGTAGQEVSDNKTLNLGKRIEDPRGMYQCGENAKSFTLQVYYRM", "soluble on expression in E. coli": "soluble"}, {"sequence": "MAAGTFTAQNKVRPGVYINFKSEPQAAGTLGERGIVSMPLILSWGEPGKMITIEAGDDVFPKLGYSIMDAQLRLINEALKRAKTLLLYRLNAGTKAAVTVGNLTVTAKWGGARGNDITLVIQENIDDETKFDVSTLVDGAELDKQTVSDIAGLAANDWVIFSGTGALTETAGAPLINGSDGAVTNQAYIDYLAAVEIFDFNTIALPSTDDALKATFTAFAKRLRDDEGKKIQVVLENYPAADYEGVISVKNGVVLADGTILTAAQATAWVAGATAGARVNESLTYQGYDEAVDVAPRYTNAQIIAALQAGEFLFTASDNQALVEQDINTLTSFTADKGKQFAKNRVIRVLDGINNDFVRIFSKFYIGKVSNNADGRNLLKSECINYMNTLQDIDAIKNFDGQTDLTVQSGNDVDAVYIEAYAWPVDSIEKIYVRVRIKLEHHHHHH", "soluble on expression in E. coli": "soluble"}, {"sequence": "MNGPIIMTREERMKIVHEIKERILDKYGDDVKAIGVYGSLGRQTDGPYSDIEMMCVMSTEEAEFSHEWTTGEWKVEVNFYSEEILLDYASQVESDWPLTHGQFFSILPIYDSGGYLEKVYQTAKSVEAQTFHDAICALIVEELFEYAGKWRNIRVQGPTTFLPSLTVQVAMAGAMLIGLHHRICYTTSASVLTEAVKQSDLPSGYDHLCQFVMSGQLSDSEKLLESLENFWNGIQEWTERHGYIVDVSKRIPF", "soluble on expression in E. coli": "soluble"}, {"sequence": "MAHHHHHHMTVGAAALCEYYGYLPRLVRHTGLLPSTRTSVTSSMAATVLQSSLYEADPSPPVRSGEFELPSTYSLHKPLVYDIAALPPKPVSSLRLVIISDTHERHREMSVPNGDVLVHCGDIQEGLNFVRDVKAMLIDFSAWFTDSALHPHPVKLIIAGNHDKAIAAMSTEDVRRLFAPAVYLCEDSVVVEPAGVRFYGSPRSISNSRWSPNTAFQGKKAWKRFVFASARQDDEAGAVSTASRCSSEQPLRSRLEGATPGGPVDVLVVHQSPDIPRAHHSVSEQPICAYAQQVAPRRVLLCGHLHGAHGMHRLPVPEHVRKSFRIATRGGGGQPEGVVRMDEIPHLPCINAAMMTGRFGQNVLLPPSVVDLEL", "soluble on expression in E. coli": "not soluble"}, {"sequence": "MEKYSQVIFDKNTVEFVTVAAEFCGFLERARDMKRYDFVDTALKILPLLYLKATLLPPCEPIGEDEPETFVTEEDYELIRRAIAGVLGAKDDYLEVFLPDMVYSDTPIKKCISEDLADIYQDLKDFISVFQLGLNETMNDSLVVCKEHFREFWGQRLVNTMRALHDVKYSPADDGEEEEMEDENSLLLEHHHHHH", "soluble on expression in E. coli": "soluble"}, {"sequence": "GSHMLEDPLRVSPMIREFVQSIDDREWQTQLFALLQKQTYNQVEVDLFELMCKVLDQNLFSQVDWARNTVFFKDLKVDDQMKLLQHSWSDMLVLDHLHHRIHNGLPDETQLNNGQVFNLMSLGLLGVPQLGDYFNELQNKLQDLKFDMGDYVCMKFLILLNPSVRGIVNRKTVSEGHDNVQAALLDYTLTCYPSVNDKFRGLVNILPEIHAMAVRGEDHLYTKHCAGSAPTQTLLMEMLHAKR", "soluble on expression in E. coli": "soluble"}, {"sequence": "MKYEVVITSGNSNQAPIGAFFKGDFVTLHLYGGSHTFENLQKDGFYILNTCSPYLIAKSVLDDAGDYEYLDNDGIKIPYLKDSYKIELIEIKSRKIVETKNEFGSSKLMIVEGKPIFEKILNCNTSAYNRADGAVVEMAVLYSRKNMISKEEINDEITRLMKIIKKVGSKNHIELAKKLGVLEHHHHHH", "soluble on expression in E. coli": "not soluble"}, {"sequence": "SFHGIPASGVMGGAPANKPELYEEVKLYKNAREREKYDNMAELFAVVKTLQALEKAYIKDCVTPNEYTGACSRLLVQYKAAFKQVQGSDVGSIDDFCRKYRLDCPLAMERIKEDRPITIKDDKGNLNRCIADIVSLFITVMDKLRLEIRAMDEIQPDLRELMETMNRMSNMPPDSEAKDKVSLWLTTLSSMSASDELDDSQVRQMLFDLESAYNAFNRFLHSS", "soluble on expression in E. coli": "soluble"}, {"sequence": "HHHHHHHHHHMPPKGWRKDAQGNYPTTSYIKEQENITIQDLLFPKSTIVNLAREVPQQSGKKLLINKDASLALQRGATVFVNHLLLFAREIAKSQDKKSCSVDDVLSALDHIGHSALKGPVRDKLDEYQAAVEQRKKEKLDSGEVDADGDIDMGEDKENVPVEKVKEHDEIEEQGDALQDVEESSEKKQKTESQDVETRVQNLEQT", "soluble on expression in E. coli": "not soluble"}, {"sequence": "AIGEFMVSLPRMVYPQPKVLTPCRKDVLVVTPWLAPIVWEGTFNIDILNEQFRLQNTTIGLTVFAIKKYVAFLKLFLETAEKHFMVGHRVHYYVFTDQPAAVPRVTLGTGRQLSVLEVRAYKRWQDVSMRRMEMISDFCERRFLSEVDYLVCVDVDMEFRDHVGVEILTPLFGTLHPGFYGSSREAFTYERRPQSQAYIPKDEGDFYYLGGFFGGSVQEVQRLTRACHQAMMVDQANGIEAVWHDESHLNKYLLRHKPTKVLSPEYLWDQQLLGWPAVLRKLRFTAVPKNHQAVRNP", "soluble on expression in E. coli": "soluble"}, {"sequence": "MGSDKIHHHHHHMPIHLIWGNDYEACNREIEELINSVIDSSWKSFNYSQLDGNDPKQNLRALEEAQSAPLGSGGRIVLVRRSPFCNGCSIELGNKLEQVIKLIPDKTHLILSNANKPDKRLKTTKLIEKSIQSNTLSQEKSFILPLPWDINGQRNLVKNNLERLNLKMNYETIDLIVESIGNDSSLINTELQKLSLFSEAVNTNLTTDKPREISKELVKKLIQNNSTNALEIANSLLKGEKIIALNKIQSLLKNGEPALRLITTLTGQSRGWLWVHLLDSQGNQDVKEIAKLAGIANPKRIFVIRKQIQGKSLGTLLELMKKLLKIEASIKSGIKPIDSFKDNLLTDSKILANN", "soluble on expression in E. coli": "not soluble"}, {"sequence": "MSLSRIIVVTSGKGGVGKTTSSAAIASGLALRGKKTAVIDFDIGLRNLDLIMGCERRVVYDFVNVINGEATLNQALIKDKRNENLFILPASQTRDKDALTKDGVQRVLNDLKEMGFDFIICDSPAGIEQGALMALYYADEAIVTTNPEVSSVRDSDRILGILDSKSMRAEQGQAPIKQHLLLTRYNPARVTQGEMLSVQDVEEILHVPLLGVIPESQAVLNASNKGVPVIFDDQSDAGQAYQDTVARLLGEQVEFRFLTEAKKGIFKRLFGGEGHHHHHH", "soluble on expression in E. coli": "soluble"}, {"sequence": "MPGIDKLPIEETLEDSPQTRSLLGVFEEDATAISNYMNQLYQAMHRIYDAQNELSAATHLTSKLLKEYEKQRFPLGGDDEVMSSTLQQFSKVIDELSSCHAVLSTQLADAMMFPITQFKERDLKEILTLKEVFQIASNDHDAAINRYSRLSKKRENDKVKYEVTEDVYTSRKKQHQTMMHYFCALNTLQYKKKIALLEPLLGYMQAQISFFKMGSENLNEQLEEFLANIGTSVQNVRREMDSDIETMQQTIEDLEVASDPLYVPDPDPTKFPVNRNLTRKAGYLNARNKTGLVSSTWDRQFYFTQGGNLMSQARGDVAGGLAMDIDNCSVMAVDCEDRRYCFQITSFDGKKSSILQAESKKDHEEWICTINNISKQIYLSENPEETAARVNQSALEAVTPSPSFQQRHESLRPAAGQSRPPTARTSSSGSLGSESTNLAALSLDSLVAPDTPIQFDIISPVCEDQPGQAKAFGQGGRRTNPFGESGGSTKSETEDSILHQLFIVRFLGSMEVKSDDHPDVVYETMRQILAARAIHNIFRMTESHLLVTCDCLKLIDPQTQVTRLTFPLPCVVLYATHQENKRLFGFVLRTSSGRSESNLSSVCYIFESNNEGEKICDSVGLAKQIALHAELDRRASEKQKEIERVKEKQQKELNKQKQIEKDLEEQSRLIAASSRPNQASSEGQFVVLSSSQSEESDLGEGGKKRESEA", "soluble on expression in E. coli": "soluble"}, {"sequence": "MTATSLWELAERARKRLSEIAKGNRDRALLAMADLLEARWEEVLRANREDLEEAERTGLPKAKLDRLALKEKDLKTLTEGLRQIARLPDPLGRIEGLAKRPNGLRVGRMRVPLGLIGFIYEARPGATVEAVSVALKAGNAMLLRGGKEAFRSNRALVALWHEALGEAGLPEEAVTLVPTTDREAVLEMCRLELLDLLIPRGGEELIRLVQREARVPVLAHAKGVNHLYVDKKADLSMALRLALNGKTQRPAVCNALETVLVHEKVAEAFLPRLEKAMREKGVELRACPRALPLLKEAVPAREDEWDREYLDLVLRVKVVSGLEEALAHIARYGSRHTEAICTEDPKAAWRFLEEVDASLVLWNASTRFNDGFELGLGAEIGISTSKLHAYGPMGPMELTTLKWVALGEGQERT", "soluble on expression in E. coli": "soluble"}]}]}
